Results reported in article doi:10.1101/422709 (bioRxiv, 2019).

Biological target: the molecule itself
Assay: crystal structure

B1: phosphoribulokinase from Arabidopsis thaliana (enzyme, UniProt P25697 47-395, looked up)
chain: AQETIVIGLAADSGCGKSTFMRRLTSVFGGAAKPPKGGNPDSNTLISDTTTVICLDDYHSLDRYGRKEQKVTALDPRANDFDLMYEQVKALKNGIAVEKPIYNHVTGLLDPPELIQPPKILVIEGLHPMFDERVRDLLDFSIYLDISNEVKFAWKIQRDMAERGHSLESIKASIEARKPDFDAFIDPQKQYADAVIEVLPTTLIPDDNEGKVLRVRLIMKEGVKYFSPVYLFDEGSTISWIPCGRKLTCSYPGIKFNYEPDSYFDHEVSVLEMDGQFDRLDELIYVESHLSNLSTKFYGEVTQQMLKHADFPGSNNGTGLFQTIVGLKIRDLYEQLIANKATARAEAKA
stoichiometry N: 2

B2: phosphoribulokinase from Chlamydomonas reinhardtii (enzyme, UniProt P19824 32-375, looked up)
chain: DKDKTVVIGLAADSGCGKSTFMRRMTSIFGGVPKPPAGGNPDSNTLISDMTTVICLDDYHCLDRNGRKVKGVTALAPEAQNFDLMYNQVKALKEGKSVDKPIYNHVSGLIDAPEKIESPPILVIEGLHPFYDKRVAELLDFKIYLDISDDIKFAWKIQRDMAERGHSLESIKSSIAARKPDFDAYIDPQKKDADMIIQVLPTQLVPDDKGQYLRVRLIMKEGSKMFDPVYLFDEGSTISWIPCGRKLTCSFPGIKMFYGPDTWYGQEVSVLEMDGQFDKLEELIYVESHLSNTSAKFYGEITQQMLKNSGFPGSNNGTGLFQTIVGLKVREVYERIVKKDVVPV
stoichiometry N: 2
